The supplement of paper PMC12042874
± gives the uncertainty stated by the source.

Experiment: amyloid nucleation score (Sup35N fusion, yeast selection) (log enrichment); library NNK3; higher = more nucleation; inactive = no reads after selection
In short: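 DiMSum was used to calculate nucleation scores as log enrichment of output over input reads, centred on the mode score of non-aggregating sequences. Sequences with fewer than 100 input reads were not scored. Input and output came from Illumina sequencing of plasmid inserts in psi-negative yeast expressing peptides of 20 random codons fused to Sup35N, induced 24 hours with 100 μM copper sulfate and then grown 7 days at 30°C on medium lacking adenine and uracil.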

Row | Substance | amyloid nucleation score
1 | LVNEKNIRVEVCIAYACQDS | -0.053 ± 0.33
2 | VTFYFSYMCAKGTH | 0.53 ± 0.17
3 | SAYWCIPIPNITIWFNFFLL | 1.47 ± 0.11
4 | RGLLEANMLGSSGDPSVNSG | inactive
5 | GPGQLYLLDM | inactive
6 | HFSFLL | 1.37 ± 0.084
7 | NYTSCNFNVYNSMFFRRYTM | 3.2 ± 0.053
8 | TWFYQ | inactive
9 | LNIMVE | inactive
10 | TLSAEGVRRLFTCACSYHEG | 0.532 ± 0.47
11 | VCHKCCDRIQSLVGVRGHQE | inactive
12 | TNTNFSVRFRTTKWMAKRRA | 1.4 ± 0.11
13 | VITIAIELLGVLFVCIGTIV | inactive
14 | ILLQVLIR | inactive
15 | GERFAVTSVSDHVTDKKTLS | 1.77 ± 0.093
16 | MYRLVGHLTIHVVMVLAQWW | inactive
17 | CVRNENRSGS | -0.974 ± 2.5
18 | SVLGVSTYSLCSSVNCIFRF | 2.74 ± 0.062
19 | ILRWRHMVVWSPNVHGVGAF | inactive
20 | GRKKWGLSQSCDKLPMGHTS | inactive
21 | GEFYCVVLRQYVWAQDDAG | inactive
22 | AWLMRLMSYLGSSGWE | inactive
23 | SYVFTR | inactive

Row | Substance | amyloid nucleation score
24 | QLTNRKCR | -0.8 ± 2.5
25 | GQDRYLLAAYK | inactive
26 | FVVCSAM | inactive
27 | PFLLSMNVGQGFRRV | inactive
28 | VNALKRTGK | inactive
29 | IKRSGGYVGFCRLVERSQRG | inactive
30 | SVIMGLTGDPGVALYVVTIM | inactive
31 | GYAHLLMANLRWSSTRLA | inactive
32 | GDYDTMAEVKPFLDEKC | inactive
33 | ITTVRAYEALTWNMFWVQCV | inactive
34 | YYSFFDIFCVITSRANFGRP | 1.28 ± 0.17
35 | RSFVVESPDKYHPIVMFGTD | inactive
36 | EGGDHCMNGHCVCRVGWLWA | inactive
37 | TCMPRFSALYICSGTLDKKL | inactive
38 | NFCFDSPLIFPDCQLG | inactive
39 | PFLLSFKGNMQADSPGC | inactive
40 | GWRSTYYECSGKSVFNAG | -0.217 ± 0.8
41 | TRWGCSSSSNFGCFDDKRRL | inactive
42 | YNKGRNY | inactive
43 | DHNARSVCTSNHSMAKRMFG | inactive
44 | QFKYHYYNLCWSTSVFSFKN | 0.837 ± 0.22
45 | QAVTMRTGVKCYQIGRAWIG | -0.313 ± 0.84
46 | VGVSISLSRARWGQIAMEET | 1.05 ± 0.2

Row | Substance | amyloid nucleation score
47 | NGFGSNNVGSGERLADVAVI | inactive
48 | MYEVVRVKYMVAQQFNISSE | inactive
49 | AQRVMD | inactive
50 | TFFWLLCN | inactive
51 | KLYELDAVMMAWVIMY | inactive
52 | NRGLWRM | inactive
53 | VLCLVAGDYMNELIGGKGKV | inactive
54 | KHILFE | inactive
55 | NDGLAQSNIEIKDYRCRQNY | inactive
56 | KLKPMPNWSRLSRDWVLCCS | inactive
57 | AIRKL | inactive
58 | GLPFLSTMELLLLLMSKTMR | inactive
59 | IRGFVSIW | inactive
60 | GRHKFRMVVIRAVRVSVLEN | inactive
61 | ILDDSSWNSLTANVVVWTYF | -1.05 ± 1.3
62 | TYSRFEISCMCWASYTIK | 0.775 ± 0.22
63 | LSRMTRESKPQEISAQARLD | 1.14 ± 0.13
64 | TSILMPASDVLKMQVVPWLS | 0.904 ± 0.16
65 | RTKYSQYHTGVSFDGSMHYS | inactive
66 | SQFQGAMMYFCEEMCICFFC | 2.01 ± 0.097
67 | LYRRVHVMGPVSHLDKLERC | inactive
68 | FTNLMLTTMCSLTLLTRGFP | inactive
69 | SLKRHQTWLDGVEVRVVYMP | inactive

Row | Substance | amyloid nucleation score
70 | GHLESVFRSVDTLVSYSS | 0.138 ± 0.55
71 | LTPSECMENYRGFSDMRRCP | inactive
72 | SWRKCPNLPSCKTIPNAWVL | inactive
73 | LYEDYISSSMSMLLRLLSSY | inactive
74 | AIYVFIRLLYVNIHDTTPVR | inactive
75 | ICTCKWRLTLEQTSFVDGLT | inactive
76 | VYYFRQLFPICIDNQARTWC | inactive
77 | ISPVRRWPQLLIYAMVTGGQ | inactive
78 | WRIDDY | inactive
79 | SMFKLMRP | inactive
80 | YFLDLL | inactive
81 | MIGFYLILVGSHIRMYTGS | inactive
82 | MRMVTSCTISF | inactive
83 | VHGKWIDRRYNVISRPLGGG | inactive
84 | NSGLSG | inactive
85 | CMLSPV | inactive
86 | PMLVALWCMGKTN | -0.521 ± 1.4
87 | SLIGSRGPLNSGEVMMMLFK | inactive
88 | EVGDPMYRTIGVKFGPLAME | inactive
89 | HRDCRKFCSMNTHANMNMLS | inactive
90 | YPCLSIGFSCSVLRMNVYLW | 0.368 ± 0.21
91 | FQTGPRYAWGLQTGLNKQVC | inactive
92 | WYSTEM | inactive

Row | Substance | amyloid nucleation score
93 | VIGVCFSKFWWNTHDTRSDS | 0.665 ± 0.23
94 | NFMYTWKRSMFYSNCKH | inactive
95 | HGLFTFVGCHCLCRN | 0.939 ± 0.16
96 | CEGRHKFF | inactive
97 | RTYHSLVSSEERRWKLKHCY | inactive
98 | SAVLPLALVGHDTPNRAQLN | inactive
99 | REGLRYLMVRSIIFSHIFCN | inactive
100 | RTINWASCQSWLKVTSPKGL | inactive
101 | IYPLV | inactive
102 | MCWLVWLSPRSNDCVDHRFD | -0.163 ± 0.46
103 | HNLLEETLTWCNIGRGWDD | inactive
104 | SFSFVDLGIHYLMCNDSKIT | inactive
105 | LYAWPHRTIVVVWLRILLFR | inactive
106 | LHFGDMLLVCNTFFELRVLH | 1.73 ± 0.08
107 | GRRTARKIKAGPYLCWKDGT | inactive
108 | LYMVINYMKCVARHGTQNDR | inactive
109 | TWNVPWE | inactive
110 | IVYLRKPCYNW | inactive
111 | VCRFPRFFWTCYSDVLHCFS | inactive
112 | MWKDLVVCL | 0.175 ± 0.88
113 | GLTWFKSIKVYVECLFRLSN | inactive
114 | SYSHRVVLRDTRTRQAKPRA | inactive
115 | LWDRHNCWGDEASFPSRPTY | inactive

Row | Substance | amyloid nucleation score
116 | RKLFKKTFYLAPRL | inactive
117 | TSVCSHSEVCGWSYYTDLLS | inactive
118 | TGISSNHKFMESIDSYVGTP | inactive
119 | FPFSYVYSR | inactive
120 | YLICDFTFYVRGGGGMSQMT | 0.655 ± 0.28
121 | TNRFSRWCIRRRMSAVRYIG | inactive
122 | REYRIFLVPCFSISDRGGSW | inactive
123 | ILFLNHDMWQCDNDSLKAIH | inactive
124 | ALLTFILVLIVEVVNWRKVC | 0.961 ± 0.23
125 | SYMVKM | inactive
126 | FAYLVS | inactive
127 | CVNLRNIRFSTLRGMGGWI | inactive
128 | FIFYFCAVLNHYVCVWVRYL | inactive
129 | VSLCIDRSMRCPRLVCVERG | inactive
130 | YRIWEQTLMFYVNLSRAKCF | inactive
131 | SRRLVKESDDRGCCRGLFWD | inactive
132 | YFKVFQVLNLNICYSYRMVN | inactive
133 | YYLMLSIGQYSHTCMDGYVM | inactive
134 | CTGSWMVTAERLARACHTRL | inactive
135 | YVGFRAQHTNEDDGTTVCRP | inactive
136 | NSWIMYRGGKDDDFVVPWAA | inactive
137 | RYFVRYVRSVLTSG | inactive
138 | NFGRAQSNACAENVFAIERG | inactive

Row | Substance | amyloid nucleation score
139 | SITDESASPPSRWKLGRFR | inactive
140 | ELRSHKLMMGRQYLHRLCSV | inactive
141 | VILVFIFRYLHTPSGSSGAR | inactive
142 | NDTFVY | inactive
143 | KGVKYMDGH | 0.303 ± 0.2
144 | FKSASGRL | inactive
145 | MPLYCNKMGCPLGKGMHMCH | inactive
146 | NDIMKTCFFNTYAYHLSVVM | inactive
147 | CQNLATRSFKALPLRSLCTC | inactive
148 | GCWNVMRRCVLLILPESYLV | inactive
149 | YSGCRVLLQWVEFSCRWIWY | inactive
150 | GRDEQNHRFELVL | inactive
151 | DSVFCVRLAKLVGLHSSF | inactive
152 | CSYYFQLNMVSKECPRS | 0.562 ± 0.14
153 | GSCSIGSINIAFASSSIVYG | inactive
154 | SVLCMGLHEIQYIRRFCRHW | inactive
155 | VVHKNRLMKFHRFLILYSEG | inactive
156 | AWNFNLKLKELRKTMTS | inactive
157 | NDYCPLYIGHVGRFHPAKDV | inactive
158 | YQNVMWLC | inactive
159 | VYSLE | inactive
